Reference: article PMC9482650, “Quantitative fragmentomics allow affinity mapping of interactomes” (Nature Communications, 2022)

T1: PARD3B_1, Q8TEW8
T1 sequence (Q8TEW8 196-299, limits assumed, looked up): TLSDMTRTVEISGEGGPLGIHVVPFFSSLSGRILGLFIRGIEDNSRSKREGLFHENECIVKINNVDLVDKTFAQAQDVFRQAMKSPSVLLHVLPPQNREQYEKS

T2: SNTG1, Q9NSN8
T2 sequence (Q9NSN8 52-150, limits assumed, looked up): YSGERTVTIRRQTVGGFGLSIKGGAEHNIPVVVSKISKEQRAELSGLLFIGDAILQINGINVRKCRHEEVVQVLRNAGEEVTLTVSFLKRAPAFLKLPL

T3: APBA3_1, O96018
T3 sequence (O96018 389-490, limits assumed, looked up): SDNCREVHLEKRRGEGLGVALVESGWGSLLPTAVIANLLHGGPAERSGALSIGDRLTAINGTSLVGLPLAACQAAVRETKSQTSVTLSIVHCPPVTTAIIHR

T4: MPDZ_10, O75970
T4 sequence (O75970 1624-1722, limits assumed, looked up): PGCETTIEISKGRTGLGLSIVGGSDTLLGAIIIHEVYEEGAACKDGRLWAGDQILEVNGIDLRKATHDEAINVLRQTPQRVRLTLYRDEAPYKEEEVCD

T5: PDZD7_3, Q9H5P4
T5 sequence (Q9H5P4 857-944, limits assumed, looked up): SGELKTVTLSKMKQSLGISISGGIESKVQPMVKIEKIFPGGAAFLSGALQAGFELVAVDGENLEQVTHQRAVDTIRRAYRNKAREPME

T6: MPDZ_5, O75970
T6 sequence (O75970 695-796, limits assumed, looked up): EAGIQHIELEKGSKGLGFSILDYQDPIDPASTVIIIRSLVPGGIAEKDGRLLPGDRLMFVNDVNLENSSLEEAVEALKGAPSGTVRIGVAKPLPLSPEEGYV

T7: PCLO, Q9Y6V0
T7 sequence (Q9Y6V0 4491-4600, limits assumed, looked up): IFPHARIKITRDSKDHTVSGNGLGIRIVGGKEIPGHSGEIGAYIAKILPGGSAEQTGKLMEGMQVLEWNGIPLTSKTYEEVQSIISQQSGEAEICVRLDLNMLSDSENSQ

T8: SHANK1, Q9Y566
T8 sequence (Q9Y566 658-767, limits assumed, looked up): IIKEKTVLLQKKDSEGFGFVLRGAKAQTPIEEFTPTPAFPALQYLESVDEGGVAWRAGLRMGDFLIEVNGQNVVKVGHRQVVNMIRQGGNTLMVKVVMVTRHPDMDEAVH

T9: SNTA1, Q13424
T9 sequence (Q13424 82-180, limits assumed, looked up): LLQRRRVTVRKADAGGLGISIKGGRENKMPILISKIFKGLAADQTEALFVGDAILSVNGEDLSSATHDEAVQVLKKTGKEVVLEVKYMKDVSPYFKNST

T10: RADIL, Q96JH8
T10 sequence (Q96JH8 971-1071, limits assumed, looked up): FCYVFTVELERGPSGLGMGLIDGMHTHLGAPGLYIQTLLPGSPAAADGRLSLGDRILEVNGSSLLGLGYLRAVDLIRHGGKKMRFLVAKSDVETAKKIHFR

T11: GRIP1_3, Q9Y3R0
T11 sequence (Q9Y3R0 247-346, limits assumed, looked up): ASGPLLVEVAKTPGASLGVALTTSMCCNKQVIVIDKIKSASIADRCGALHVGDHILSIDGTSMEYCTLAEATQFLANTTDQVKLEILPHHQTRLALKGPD

T12: DVL3, Q92997
T12 sequence (Q92997 244-331, limits assumed, looked up): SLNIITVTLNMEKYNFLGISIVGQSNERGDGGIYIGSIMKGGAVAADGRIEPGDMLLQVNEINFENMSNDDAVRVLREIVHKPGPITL

T13: LNX2_2, Q8N448
T13 sequence (Q8N448 334-432, limits assumed, looked up): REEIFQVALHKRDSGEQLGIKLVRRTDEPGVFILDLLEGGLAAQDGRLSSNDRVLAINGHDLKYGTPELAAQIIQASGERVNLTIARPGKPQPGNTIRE


Legend:
Test in all cases: holdup assay
Design in all cases: key: below the threshold = too weak to quantify, mostly under pKd 3.1 to 4
Settings in all cases: plain residues with an end cap or a label only (N-terminal biotin on a linker: ado-ado)
DLG4_2, P78352 = biological target: DLG4_2, P78352
Sequence of DLG4_2, P78352 (P78352 155-259): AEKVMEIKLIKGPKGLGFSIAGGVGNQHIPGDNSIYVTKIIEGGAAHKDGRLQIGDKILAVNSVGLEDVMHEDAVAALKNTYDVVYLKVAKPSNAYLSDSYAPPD

MAGI1_2, Q96QZ7 = biological target: MAGI1_2, Q96QZ7
Sequence of MAGI1_2, Q96QZ7 (Q96QZ7 456-580): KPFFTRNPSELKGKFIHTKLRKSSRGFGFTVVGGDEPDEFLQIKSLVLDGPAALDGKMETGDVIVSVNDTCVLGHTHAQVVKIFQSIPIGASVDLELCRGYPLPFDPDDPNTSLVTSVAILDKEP

PARD3B_1, Q8TEW8 = biological target: T1, PARD3B_1, Q8TEW8
SNTG1, Q9NSN8 = biological target: T2, SNTG1, Q9NSN8
PDZRN4_1, Q6ZMN7 = biological target: PDZRN4_1, Q6ZMN7
Sequence of PDZRN4_1, Q6ZMN7 (Q6ZMN7 213-318): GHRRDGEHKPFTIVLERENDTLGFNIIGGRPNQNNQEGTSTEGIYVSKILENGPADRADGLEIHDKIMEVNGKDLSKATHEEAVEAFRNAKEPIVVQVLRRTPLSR

APBA3_1, O96018 = biological target: T3, APBA3_1, O96018
MPDZ_10, O75970 = biological target: T4, MPDZ_10, O75970
GRID2IP_1, A4D2P6 = biological target: GRID2IP_1, A4D2P6
Sequence of GRID2IP_1, A4D2P6 (A4D2P6 1-87): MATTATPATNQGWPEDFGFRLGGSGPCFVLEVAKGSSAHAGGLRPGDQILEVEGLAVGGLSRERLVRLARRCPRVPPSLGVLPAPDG

PDZD7_3, Q9H5P4 = biological target: T5, PDZD7_3, Q9H5P4
MPDZ_5, O75970 = biological target: T6, MPDZ_5, O75970
MAGI2_4, Q86UL8 = biological target: MAGI2_4, Q86UL8
Sequence of MAGI2_4, Q86UL8 (Q86UL8 772-865): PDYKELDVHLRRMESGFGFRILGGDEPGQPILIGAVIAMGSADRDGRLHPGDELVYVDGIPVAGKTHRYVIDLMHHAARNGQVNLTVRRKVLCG

FRMPD2_3, Q68DX3 = biological target: FRMPD2_3, Q68DX3
Sequence of FRMPD2_3, Q68DX3 (Q68DX3 1073-1166): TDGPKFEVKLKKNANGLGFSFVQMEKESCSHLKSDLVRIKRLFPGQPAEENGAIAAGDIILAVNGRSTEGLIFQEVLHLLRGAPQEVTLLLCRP

PCLO, Q9Y6V0 = biological target: T7, PCLO, Q9Y6V0
SHANK1, Q9Y566 = biological target: T8, SHANK1, Q9Y566
CASK, O14936 = biological target: CASK, O14936
Sequence of CASK, O14936 (O14936 487-570): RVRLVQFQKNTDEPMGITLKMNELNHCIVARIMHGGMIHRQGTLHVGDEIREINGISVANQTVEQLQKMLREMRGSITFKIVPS

SNTA1, Q13424 = biological target: T9, SNTA1, Q13424
LNX1_1, Q8TBB1 = biological target: LNX1_1, Q8TBB1
Sequence of LNX1_1, Q8TBB1 (Q8TBB1 261-371): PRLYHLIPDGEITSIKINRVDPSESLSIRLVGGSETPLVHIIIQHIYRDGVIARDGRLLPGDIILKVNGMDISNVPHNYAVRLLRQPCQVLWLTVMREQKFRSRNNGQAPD

RADIL, Q96JH8 = biological target: T10, RADIL, Q96JH8
GRIP1_3, Q9Y3R0 = biological target: T11, GRIP1_3, Q9Y3R0
IL16_1, Q14005 = biological target: IL16_1, Q14005
Sequence of IL16_1, Q14005 (Q14005 210-306): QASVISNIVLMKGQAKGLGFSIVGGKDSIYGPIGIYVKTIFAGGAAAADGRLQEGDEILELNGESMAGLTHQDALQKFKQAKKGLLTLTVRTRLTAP

DVL3, Q92997 = biological target: T12, DVL3, Q92997
LIMK2, P53671 = biological target: LIMK2, P53671
Sequence of LIMK2, P53671 (P53671 143-248): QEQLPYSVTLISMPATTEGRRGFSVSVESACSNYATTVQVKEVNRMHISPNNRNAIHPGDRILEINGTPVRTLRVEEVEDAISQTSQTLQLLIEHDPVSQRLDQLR

Inadl_3, Q8NI35 = biological target: Inadl_3, Q8NI35
Sequence of Inadl_3, Q8NI35 (Q8NI35 359-469): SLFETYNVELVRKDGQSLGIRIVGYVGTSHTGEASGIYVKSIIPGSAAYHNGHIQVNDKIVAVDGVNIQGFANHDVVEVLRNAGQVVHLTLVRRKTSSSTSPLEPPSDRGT

LNX2_2, Q8N448 = biological target: T13, LNX2_2, Q8N448

| pKd (DLG4_2, P78352) | pKd (MAGI1_2, Q96QZ7) | pKd (PARD3B_1, Q8TEW8) | pKd (SNTG1, Q9NSN8) | pKd (PDZRN4_1, Q6ZMN7) | pKd (APBA3_1, O96018) | pKd (MPDZ_10, O75970) | pKd (GRID2IP_1, A4D2P6) | pKd (PDZD7_3, Q9H5P4) | pKd (MPDZ_5, O75970) | pKd (MAGI2_4, Q86UL8) | pKd (FRMPD2_3, Q68DX3) | pKd (PCLO, Q9Y6V0) | pKd (SHANK1, Q9Y566) | pKd (CASK, O14936) | pKd (SNTA1, Q13424) | pKd (LNX1_1, Q8TBB1) | pKd (RADIL, Q96JH8) | pKd (GRIP1_3, Q9Y3R0) | pKd (IL16_1, Q14005) | Binder | also measured |
| --- | --- | --- | --- | --- | --- | --- | --- | --- | --- | --- | --- | --- | --- | --- | --- | --- | --- | --- | --- | --- | --- |
| 4.65 | 4.4 | below the threshold | below the threshold | 3.63 | below the threshold | below the threshold | below the threshold | 4.41 | below the threshold | 4.44 | below the threshold | below the threshold | 3.49 | below the threshold | 3.79 | 3.61 | 4.11 | below the threshold | below the threshold | VISERNSTTV [C3AR1, Q16581] | pKd (DVL3, Q92997): below the threshold; pKd (LIMK2, P53671): below the threshold; pKd (Inadl_3, Q8NI35): below the threshold; pKd (LNX2_2, Q8N448): 5.05 |
| 5.27 | 4.84 | below the threshold | 4.89 | 3.86 | below the threshold | 4.4 | below the threshold | 5.24 | below the threshold | 4.77 | below the threshold | below the threshold | below the threshold | 3.5 | 5.27 | 4.41 | 4.68 | below the threshold | 4.17 | REVVMRVTTV [MARCHF9, Q86YJ5] | pKd (DVL3, Q92997): below the threshold; pKd (LIMK2, P53671): below the threshold; pKd (Inadl_3, Q8NI35): 3.94; pKd (LNX2_2, Q8N448): 5.6 |
| below the threshold | below the threshold | 3.98 | below the threshold | below the threshold | below the threshold | below the threshold | below the threshold | below the threshold | below the threshold | below the threshold | below the threshold | below the threshold | below the threshold | below the threshold | below the threshold | below the threshold | below the threshold | below the threshold | below the threshold | FEEEAEEEVA [TUBB4B, P68371] | pKd (DVL3, Q92997): below the threshold; pKd (LIMK2, P53671): below the threshold; pKd (Inadl_3, Q8NI35): below the threshold; pKd (LNX2_2, Q8N448): below the threshold |
